Our source for the activity values is US20220348894, “DNA MODIFYING ENZYMES AND ACTIVE FRAGMENTS AND VARIANTS THEREOF AND METHODS OF USE” (LifeEDIT Therapeutics, Inc., published 2022).

Holding throughout (conditions): tags: SV40 NLS, 3xFLAG, nucleoplasmin NLS
In series [1] the target is APG08449-nAPG07433.1 (synthetic). The series can be described thus: cell_activity; A16>G editing, HEK293FT. On the procedure: (§1) 500 ng of plasmid comprising an expression cassette comprising a coding sequence for a fusion protein for each deaminase described in Table 1 and 500 ng of plasmid comprising an expression cassette encoding an sgRNA shown in Table 2 were co-transfected into HEK293FT cells at 75-90% confluency in 24-well plates using Lipofectamine 2000 reagent (Life Technologies). Cells were then incubated at 37° C. for 72 h. Following incubation, genomic DNA was then extracted using NucleoSpin 96 Tissue (Macherey-Nagel) following the manufacturer's protocol. The genomic region flanking the targeted genomic site was PCR amplified using the primers in Table 2 and products were purified using ZR-96 DNA Clean and Concentrator (Zymo Research) following the manufacturer's protocol. The purified PCR products underwent Next Generation Sequencing on Illumina MiSeq. Typically, 100,000 of 250 bp paired-end reads (2×100,000 reads) are generated per amplicon. The reads were analyzed using CRISPResso (Pinello, et al. 2016 Nature Biotech, 34:695-697) to calculate the rates of editing. Output alignments were analyzed for INDEL formation or introduction of specific adenine mutations. Tables 3 through 7 show adenine base editing for each fusion protein comprising nAPG07433.1 and a deaminase from Table 1 and a guide RNA from Table 2. The deaminase component of each fusion protein is indicated. The editing rate for adenines within or proximal to the target sequence is indicated. “A5” indicates, for example, an adenine at position 5 of the target sequence. The position of each nucleotide in the target sequence was determined by numbering the first nucleotide in the target sequence closest to the PAM as position 1, and the position number increases in the […] away from the PAM sequence. The tables also show which nucleotide the adenine was changed to, and at what rate.

For series [2], the target named is APG05174-nAPG07433.1 (synthetic). Kind of series: cell_activity; A16>G editing, HEK293FT. The protocol: as §1
In series [3] the target is APG06333-nAPG07433.1 (synthetic). The series can be described thus: cell_activity; A16>G editing, HEK293FT. The protocol:
as §1

In series [4] the target is APG05723-nAPG07433.1 (synthetic). Kind of series: cell_activity; A16>G editing, HEK293FT. On the procedure: as §1
Series [5] concerns the target APG09949-nAPG07433.1 (synthetic). Kind of series: cell_activity; A16>G editing, HEK293FT. On the procedure:
as §1

Series [6] has as its target APG06489-nAPG07433.1 (synthetic). Kind of series: cell_activity; A16>G editing, HEK293FT. The protocol:
as §1

In series [7] the target is APG08196-nAPG07433.1 (synthetic). The series can be described thus: cell_activity; A16>G editing, HEK293FT. On the procedure:
as §1

Series [8] concerns the target APG03724-nAPG07433.1 (synthetic). The series can be described thus: cell_activity; A16>G editing, HEK293FT. The protocol: as §1
Series [9] concerns the target APG09102-nAPG07433.1 (synthetic). Kind of series: cell_activity; A16>G editing, HEK293FT. On the procedure:
as §1

Series [10] concerns the target LPG50154-nAPG07433.1 (synthetic). Kind of series: cell_activity; mutated reads, HEK293FT. On the procedure: (§2) 500 ng of plasmid comprising an expression cassette comprising a coding sequence for a fusion protein shown in Table 10 and 500 ng of plasmid comprising an expression cassette encoding for an sgRNA shown in Table 11 were co-transfected into HEK293FT cells at 75-90% confluency in 24-well plates using Lipofectamine 2000 reagent (Life Technologies). Cells were then incubated at 37° C. for 72 h. Following incubation, genomic DNA was then extracted using NucleoSpin 96 Tissue (Macherey-Nagel) following the manufacturer's protocol. The genomic region flanking the targeted genomic site was PCR amplified using the primers in Table 11 and products were purified using ZR-96 DNA Clean and Concentrator (Zymo Research) following the manufacturer's protocol. The purified PCR products underwent Next Generation Sequencing on Illumina MiSeq. Typically, 100,000 of 250 bp paired-end reads (2×100,000 reads) are generated per amplicon. The reads were analyzed using CRISPResso (Pinello, et al. 2016 Nature Biotech, 34:695-697) to calculate the rates of editing. Output alignments were analyzed for INDEL formation or introduction of specific adenine mutations.
(§3) The editing rate for adenines within or proximal to the target sequence is indicated. “A5” indicates, for example, an adenine at position 5 of the target sequence. The position of each nucleotide in the target sequence was determined by numbering the first nucleotide in the target sequence closest to the PAM (which is 3′ of the target for APG07433.1) as position 1, and the position number increases in the 5′ direction away from the PAM sequence. The tables also show which nucleotide the adenine was changed to, and at what rate.

For series [11], the target named is LPG50180-nAPG07433.1 (synthetic). The series can be described thus: cell_activity; mutated reads, HEK293FT. On the procedure: as §2, §3
Series [12] deals with LPG50172-nAPG07433.1 (synthetic). Kind of series: cell_activity; mutated reads, HEK293FT. On the procedure:
as §2, §3

The target in series [13] is LPG50153-nAPG07433.1 (synthetic). The series can be described thus: cell_activity; mutated reads, HEK293FT. The protocol: as §2, §3
The target of series [14] is LPG50161-nAPG07433.1 (synthetic). Kind of series: cell_activity; mutated reads, HEK293FT. On the procedure: as §2, §3
For series [15], the target named is LPG50148-nAPG07433.1 (synthetic). The series can be described thus: cell_activity; mutated reads, HEK293FT; PAM 3' of target. On the procedure:
as §2, §3

Sequence of APG08196-nAPG07433.1 (synthetic) (chain, as listed by the source): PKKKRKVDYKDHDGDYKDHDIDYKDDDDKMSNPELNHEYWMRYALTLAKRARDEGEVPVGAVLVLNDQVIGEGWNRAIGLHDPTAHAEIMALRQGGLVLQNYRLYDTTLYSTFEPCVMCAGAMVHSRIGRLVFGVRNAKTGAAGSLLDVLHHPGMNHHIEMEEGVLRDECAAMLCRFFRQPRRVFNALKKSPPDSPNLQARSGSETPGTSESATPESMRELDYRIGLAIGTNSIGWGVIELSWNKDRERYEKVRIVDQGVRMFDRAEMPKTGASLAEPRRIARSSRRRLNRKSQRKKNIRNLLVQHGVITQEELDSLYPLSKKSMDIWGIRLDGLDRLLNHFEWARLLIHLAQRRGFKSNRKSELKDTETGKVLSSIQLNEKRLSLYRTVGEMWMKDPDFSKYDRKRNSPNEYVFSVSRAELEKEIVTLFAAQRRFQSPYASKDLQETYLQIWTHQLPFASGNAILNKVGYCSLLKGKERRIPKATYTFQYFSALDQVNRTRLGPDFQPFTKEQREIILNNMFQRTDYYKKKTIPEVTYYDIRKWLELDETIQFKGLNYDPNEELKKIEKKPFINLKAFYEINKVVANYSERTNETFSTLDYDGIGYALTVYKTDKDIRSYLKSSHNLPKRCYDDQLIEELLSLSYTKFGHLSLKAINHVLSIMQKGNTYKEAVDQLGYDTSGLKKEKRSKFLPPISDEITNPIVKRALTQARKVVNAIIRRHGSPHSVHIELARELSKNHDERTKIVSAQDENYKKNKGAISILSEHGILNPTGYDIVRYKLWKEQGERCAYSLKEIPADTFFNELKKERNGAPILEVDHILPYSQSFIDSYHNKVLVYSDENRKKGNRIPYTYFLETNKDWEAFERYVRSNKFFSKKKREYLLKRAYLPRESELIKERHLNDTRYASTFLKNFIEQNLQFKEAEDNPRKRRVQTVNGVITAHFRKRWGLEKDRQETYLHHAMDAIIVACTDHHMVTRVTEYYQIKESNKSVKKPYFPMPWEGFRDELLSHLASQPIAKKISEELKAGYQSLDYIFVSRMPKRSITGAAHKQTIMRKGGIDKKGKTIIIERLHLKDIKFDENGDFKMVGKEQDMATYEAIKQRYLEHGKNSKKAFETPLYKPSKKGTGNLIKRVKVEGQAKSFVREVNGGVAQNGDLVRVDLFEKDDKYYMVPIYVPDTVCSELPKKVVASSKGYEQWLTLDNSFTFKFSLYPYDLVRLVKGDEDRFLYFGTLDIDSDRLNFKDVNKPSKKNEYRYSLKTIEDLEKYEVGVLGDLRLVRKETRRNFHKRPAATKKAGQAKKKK
Sequence of APG03724-nAPG07433.1 (synthetic) (chain, as listed by the source): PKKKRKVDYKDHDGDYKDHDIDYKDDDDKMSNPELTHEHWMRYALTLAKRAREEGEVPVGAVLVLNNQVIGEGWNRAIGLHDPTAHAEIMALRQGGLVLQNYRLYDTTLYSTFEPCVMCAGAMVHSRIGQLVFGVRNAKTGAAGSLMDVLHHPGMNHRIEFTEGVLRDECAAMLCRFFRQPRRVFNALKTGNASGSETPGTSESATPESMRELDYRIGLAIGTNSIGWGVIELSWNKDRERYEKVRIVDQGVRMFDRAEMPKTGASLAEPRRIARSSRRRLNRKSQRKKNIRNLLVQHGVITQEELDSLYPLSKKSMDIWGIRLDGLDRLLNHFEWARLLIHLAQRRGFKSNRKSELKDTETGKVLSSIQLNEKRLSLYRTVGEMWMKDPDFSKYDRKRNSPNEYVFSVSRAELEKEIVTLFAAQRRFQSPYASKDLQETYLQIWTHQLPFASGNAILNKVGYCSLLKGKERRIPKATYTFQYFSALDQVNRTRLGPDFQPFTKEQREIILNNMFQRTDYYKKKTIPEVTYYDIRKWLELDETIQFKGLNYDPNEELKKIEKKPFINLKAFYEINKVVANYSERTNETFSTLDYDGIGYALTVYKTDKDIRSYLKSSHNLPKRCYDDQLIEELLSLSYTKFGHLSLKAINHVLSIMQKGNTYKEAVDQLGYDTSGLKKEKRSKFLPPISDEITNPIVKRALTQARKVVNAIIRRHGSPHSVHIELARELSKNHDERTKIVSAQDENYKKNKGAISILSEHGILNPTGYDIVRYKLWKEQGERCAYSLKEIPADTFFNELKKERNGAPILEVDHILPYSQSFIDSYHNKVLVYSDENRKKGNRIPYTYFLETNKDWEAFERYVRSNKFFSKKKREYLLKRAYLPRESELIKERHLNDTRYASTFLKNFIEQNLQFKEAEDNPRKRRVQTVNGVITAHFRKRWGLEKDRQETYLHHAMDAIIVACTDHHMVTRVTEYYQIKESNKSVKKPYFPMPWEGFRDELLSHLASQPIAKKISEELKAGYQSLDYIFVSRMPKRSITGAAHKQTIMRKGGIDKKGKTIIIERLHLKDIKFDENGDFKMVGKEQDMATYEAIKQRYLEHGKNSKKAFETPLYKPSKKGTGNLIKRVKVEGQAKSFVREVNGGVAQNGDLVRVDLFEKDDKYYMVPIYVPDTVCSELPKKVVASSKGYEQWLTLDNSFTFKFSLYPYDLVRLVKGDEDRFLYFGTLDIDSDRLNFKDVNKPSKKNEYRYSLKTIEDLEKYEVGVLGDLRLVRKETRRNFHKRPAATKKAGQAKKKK
Sequence of APG09949-nAPG07433.1 (synthetic) (chain, as listed by the source): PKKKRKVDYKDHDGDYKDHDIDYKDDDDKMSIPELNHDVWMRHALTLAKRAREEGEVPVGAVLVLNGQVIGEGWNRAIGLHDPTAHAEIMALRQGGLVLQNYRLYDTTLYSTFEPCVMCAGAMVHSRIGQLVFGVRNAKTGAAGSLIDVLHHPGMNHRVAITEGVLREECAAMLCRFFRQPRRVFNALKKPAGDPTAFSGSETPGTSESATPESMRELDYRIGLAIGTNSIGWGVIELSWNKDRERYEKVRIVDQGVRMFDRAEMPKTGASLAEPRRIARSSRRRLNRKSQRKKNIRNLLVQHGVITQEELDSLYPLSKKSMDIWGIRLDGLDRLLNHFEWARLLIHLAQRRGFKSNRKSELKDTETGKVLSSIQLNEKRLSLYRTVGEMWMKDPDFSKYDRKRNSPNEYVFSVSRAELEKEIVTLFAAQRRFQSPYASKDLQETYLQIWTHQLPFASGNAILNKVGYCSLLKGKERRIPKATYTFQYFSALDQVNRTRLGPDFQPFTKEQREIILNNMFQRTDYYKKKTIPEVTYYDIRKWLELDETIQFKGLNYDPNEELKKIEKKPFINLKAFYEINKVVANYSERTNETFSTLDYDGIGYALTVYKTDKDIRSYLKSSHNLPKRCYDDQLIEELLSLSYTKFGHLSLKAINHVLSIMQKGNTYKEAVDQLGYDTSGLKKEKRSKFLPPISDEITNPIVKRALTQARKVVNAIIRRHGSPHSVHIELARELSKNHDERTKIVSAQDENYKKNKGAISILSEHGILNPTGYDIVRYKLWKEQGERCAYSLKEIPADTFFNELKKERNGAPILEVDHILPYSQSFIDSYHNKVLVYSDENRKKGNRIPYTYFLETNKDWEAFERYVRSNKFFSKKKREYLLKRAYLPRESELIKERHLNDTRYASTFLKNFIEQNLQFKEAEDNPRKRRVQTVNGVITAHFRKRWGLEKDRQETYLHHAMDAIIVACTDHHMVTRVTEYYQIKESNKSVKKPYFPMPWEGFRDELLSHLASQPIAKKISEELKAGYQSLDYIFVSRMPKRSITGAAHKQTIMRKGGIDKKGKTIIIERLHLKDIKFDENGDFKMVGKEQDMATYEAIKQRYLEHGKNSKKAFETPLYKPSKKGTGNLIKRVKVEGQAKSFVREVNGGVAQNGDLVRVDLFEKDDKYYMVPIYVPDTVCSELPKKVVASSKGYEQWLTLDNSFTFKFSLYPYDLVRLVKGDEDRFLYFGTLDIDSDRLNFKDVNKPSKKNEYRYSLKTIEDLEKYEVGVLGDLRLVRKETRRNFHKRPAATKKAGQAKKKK

B1: SGN000186 sgRNA (Table 2) ; SGN000186 target (Table 2) (ssRNA ; dsDNA)
RNA: GGACAGUGCGCAUCUCCCUGGUCAUAGUUCCAUUAAAGCCAAAAGUGGCUUUGAUGUUUCUAUGAUAAGGGUUUCGACCCGUGGCGUCGGGGAUCGCCUGCCCAUUGAAAUGGGCUUCUCCCCAUUUAUU
DNA 1: GGACAGTGCGCATCTCCCTG
DNA 2: CAGGGAGATGCGCACTGTCC
Consider B1, for which the activity in series [1] came out at 5.3%; in series [2] it was 3.2%; in series [3], 4.2%; in [4], 1.9%; in series [5], 3.4%; in [6] it was 2.5%. Besides, the activity in series [7] worked out at 3.3%; in [8], 4.1%; in series [9], 6.2%.

B2: SGN001681 sgRNA ; SGN001681 target (ssRNA ; dsDNA)
RNA: CCGUGCCUUGACCUACCCUGGUCAUAGUUCCAUUAAAGCCAAAAGUGGCUUUGAUGUUUCUAUGAUAAGGGUUUCGACCCGUGGCGUCGGGGAUCGCCUGCCCAUUGAAAUGGGCUUCUCCCCAUUUAUU
DNA 1: CCGTGCCTTGACCTACCCTG
DNA 2: CAGGGTAGGTCAAGGCACGG
Turning to B2, the activity turned out to be 2.26% in series [10]; 1.8% in series [11]; 1.78% in series [12]; 1.12% in [13]; 1.47% in [14]; 49.4% in series [15].
